Laboratory results as given in US6982321.

How the values were obtained:
[1] = biological target: hen eggwhite lysozyme (hen) (UniProt P00698); assay: fluorescence quenching titration with hen eggwhite lysozyme
[2] = biological target: hen eggwhite lysozyme (hen) (UniProt P00698); assay: fluorescence titration with lysozyme, 50 nM antibody, 25°
[3] = biological target: partially purified Campath-1 antigen (obtained from a glycolipid extract from human spleen) (human) (UniProt P31358); assay: direct binding assay on coated partially purified Campath-1 antigen, biotin anti-rat IgG2b detection; concentration at 50% maximal binding
[4] = biological target: Campath-1 antigen on human lymphocytes (human) (UniProt P31358); assay: cell-based or functional assay
[5] = biological target: partially purified Campath-1 antigen (obtained from a glycolipid extract from human spleen) (human) (UniProt P31358); assay: direct binding assay on coated partially purified Campath-1 antigen; concentration at 50% binding

RaVHCAMP-RaIgG2B, sequence (P20761 whole entry): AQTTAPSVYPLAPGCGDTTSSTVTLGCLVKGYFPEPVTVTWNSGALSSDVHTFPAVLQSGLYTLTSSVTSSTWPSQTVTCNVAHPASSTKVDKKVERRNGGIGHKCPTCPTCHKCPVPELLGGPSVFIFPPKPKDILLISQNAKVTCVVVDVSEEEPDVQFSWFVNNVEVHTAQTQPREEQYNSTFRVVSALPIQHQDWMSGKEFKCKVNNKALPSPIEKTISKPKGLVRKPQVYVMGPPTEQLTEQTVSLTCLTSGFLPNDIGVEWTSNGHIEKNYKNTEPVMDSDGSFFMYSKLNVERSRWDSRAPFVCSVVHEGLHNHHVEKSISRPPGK
hen eggwhite lysozyme (hen), sequence (P00698 19-147 limits assumed): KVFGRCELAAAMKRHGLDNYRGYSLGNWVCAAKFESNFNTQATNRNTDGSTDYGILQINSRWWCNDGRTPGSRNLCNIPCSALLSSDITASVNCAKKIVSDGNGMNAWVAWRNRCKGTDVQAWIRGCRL
HuVHCAMP(Ser27 to Phe, Ser30 to Thr)-RaIgG2B, sequence (P20761 whole entry): as the sequence (P20761 whole entry) above
HuVHCAMP(Ser27 to Phe)-RaIgG2B, sequence (P20761 whole entry): as above
HuVHCAMP-RaIgG2B, sequence (P20761 whole entry): as above

Kd [1] | EC50 [3] | Concentration of antibody in ug/ml at 50% binding or lysis: complement lysis [4] | Substance | other results
11.4 nM | – | – | D1.3 (H2K2) (reassociated) (antibody) | –
– | 2 µg/mL | 17.6 µg/mL | HuVHCAMP(Ser27 to Phe, Ser30 to Thr)-RaIgG2B (from UniProt P20761 1-333) (antibody) | –
– | 0.7 µg/mL | 2.1 µg/mL | RaVHCAMP-RaIgG2B (from UniProt P20761 1-333) (antibody) | EC50 [5]: 1.01 µg/mL
9.2 nM | – | – | recombinant D1.3 (H*2K2) (reassociated) (antibody) | –

The next lines start with the substance.

Substance | Kd [1] | EC50 [3] | Concentration of antibody in ug/ml at 50% binding or lysis: complement lysis [4] | other results
D1.3 (H2K2) (antibody) | 14.4 nM | – | – | equivalence point (binding sites per mole) (binding sites per mole) [2]: 1.8
HuVHCAMP(Ser27 to Phe)-RaIgG2B (from UniProt P20761 1-333) (antibody) | – | 1.8 µg/mL | 16.3 µg/mL | –
HuVHCAMP-RaIgG2B (from UniProt P20761 1-333) (antibody) | – | 27.3 µg/mL | – | –
